# US20230002460A1 (YUHAN, published 2023)
# Target: T1, GDF15 receptors GFRAL and RET, overexpressed together on HEK293 cells (UniProt Q6UXV0 19-394; P07949 29-1114, limits assumed)
# Assay: cell-based or functional assay
# T1 sequence (Q6UXV0 19-394 limits assumed, chain 1 of 2): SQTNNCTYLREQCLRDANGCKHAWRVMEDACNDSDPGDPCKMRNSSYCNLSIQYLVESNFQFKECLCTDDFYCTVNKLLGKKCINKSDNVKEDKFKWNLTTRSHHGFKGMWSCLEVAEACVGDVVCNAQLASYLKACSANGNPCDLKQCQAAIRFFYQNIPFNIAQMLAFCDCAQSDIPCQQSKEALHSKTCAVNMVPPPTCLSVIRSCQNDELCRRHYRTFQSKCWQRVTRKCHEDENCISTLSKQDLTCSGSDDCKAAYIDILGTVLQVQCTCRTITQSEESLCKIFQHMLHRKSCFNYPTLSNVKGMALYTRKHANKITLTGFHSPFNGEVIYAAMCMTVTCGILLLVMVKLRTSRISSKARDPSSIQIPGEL
# T1 sequence (P07949 29-1114 limits assumed, chain 2 of 2): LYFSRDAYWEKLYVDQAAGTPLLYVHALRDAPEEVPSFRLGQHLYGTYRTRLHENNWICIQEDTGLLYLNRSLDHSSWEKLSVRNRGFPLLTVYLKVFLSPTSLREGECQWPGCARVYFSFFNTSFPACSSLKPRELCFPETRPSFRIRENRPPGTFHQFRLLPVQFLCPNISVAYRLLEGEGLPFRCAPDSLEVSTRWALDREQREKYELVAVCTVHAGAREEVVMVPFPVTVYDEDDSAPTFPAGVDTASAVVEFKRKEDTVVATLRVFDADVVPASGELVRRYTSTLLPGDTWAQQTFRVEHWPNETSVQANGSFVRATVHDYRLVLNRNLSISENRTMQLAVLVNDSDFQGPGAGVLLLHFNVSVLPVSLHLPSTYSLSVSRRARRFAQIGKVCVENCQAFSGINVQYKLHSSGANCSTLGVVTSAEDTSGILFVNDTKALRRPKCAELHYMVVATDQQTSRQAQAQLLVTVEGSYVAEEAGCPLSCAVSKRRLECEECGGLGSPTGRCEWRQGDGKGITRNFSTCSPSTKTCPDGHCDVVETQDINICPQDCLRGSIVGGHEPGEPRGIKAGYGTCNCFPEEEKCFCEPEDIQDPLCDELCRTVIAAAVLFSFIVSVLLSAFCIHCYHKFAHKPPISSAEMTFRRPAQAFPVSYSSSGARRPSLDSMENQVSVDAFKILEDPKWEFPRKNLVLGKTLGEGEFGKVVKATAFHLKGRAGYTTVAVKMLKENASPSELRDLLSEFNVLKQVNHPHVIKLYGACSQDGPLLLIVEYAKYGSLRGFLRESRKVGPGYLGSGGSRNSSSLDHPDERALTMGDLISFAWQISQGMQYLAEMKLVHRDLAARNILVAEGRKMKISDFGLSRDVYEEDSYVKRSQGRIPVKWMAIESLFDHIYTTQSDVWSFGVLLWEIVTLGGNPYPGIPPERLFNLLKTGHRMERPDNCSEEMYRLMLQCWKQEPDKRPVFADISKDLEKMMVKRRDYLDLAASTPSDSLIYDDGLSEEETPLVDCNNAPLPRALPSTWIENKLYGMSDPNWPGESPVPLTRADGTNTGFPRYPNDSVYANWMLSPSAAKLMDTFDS
EC50,Emax (%),Binder
9 nM,97.6%,"long-acting GDF15 fusion protein (dimer) FM9-1 + Fc_hole (ΔN2, S64R; linker GS(G4S)3) (Fc fusion) chain 1: APEAAGGPSVFLFPPKPKDTLMISRTPEVTCVVVDVSHEDPEVKFNWYVDGVEVHNAKTKPREEQYASTYRVVSVLTVLHQDWLNGKEYKCKVSNKALPAPIEKTISKAKGQPREPQVYTLPPSREEMTKNQVSLWCLVKGFYPSDIAVEWESNGQPENNYKTTPPVLDSDGSFFLYSKLTVDKSRWQQGNVFSCSVMHEALHNHYTQKSLSLSPGKGSGGGGSGGGGSGGGGSNGDHCPLGPGRCCRLHTVRASLEDLGWADWVLSPREVQVTMCIGACPSQFRAANMHAQIKTRLHRLKPDTVPAPCCVPASYNPMVLIQKTDTGVSLQTYDDLLAKDCHCI chain 2: APEAAGGPSVFLFPPKPKDTLMISRTPEVTCVVVDVSHEDPEVKFNWYVDGVEVHNAKTKPREEQYASTYRVVSVLTVLHQDWLNGKEYKCKVSNKALPAPIEKTISKAKGQPREPQVYTLPPSREEMTKNQVSLSCAVKGFYPSDIAVEWESNGQPENNYKTTPPVLDSDGSFFLVSKLTVDKSRWQQGNVFSCSVMHEALHNHYTQKSLSLSPGK"
9.5 nM,111%,"long-acting GDF15 fusion protein (dimer) FM9-2 + Fc_hole (ΔN2, S64R; linker GS(G4S)5) (Fc fusion) chain 1: APEAAGGPSVFLFPPKPKDTLMISRTPEVTCVVVDVSHEDPEVKFNWYVDGVEVHNAKTKPREEQYASTYRVVSVLTVLHQDWLNGKEYKCKVSNKALPAPIEKTISKAKGQPREPQVYTLPPSREEMTKNQVSLWCLVKGFYPSDIAVEWESNGQPENNYKTTPPVLDSDGSFFLYSKLTVDKSRWQQGNVFSCSVMHEALHNHYTQKSLSLSPGKGSGGGGSGGGGSGGGGSGGGGSGGGGSNGDHCPLGPGRCCRLHTVRASLEDLGWADWVLSPREVQVTMCIGACPSQFRAANMHAQIKTRLHRLKPDTVPAPCCVPASYNPMVLIQKTDTGVSLQTYDDLLAKDCHCI chain 2: APEAAGGPSVFLFPPKPKDTLMISRTPEVTCVVVDVSHEDPEVKFNWYVDGVEVHNAKTKPREEQYASTYRVVSVLTVLHQDWLNGKEYKCKVSNKALPAPIEKTISKAKGQPREPQVYTLPPSREEMTKNQVSLSCAVKGFYPSDIAVEWESNGQPENNYKTTPPVLDSDGSFFLVSKLTVDKSRWQQGNVFSCSVMHEALHNHYTQKSLSLSPGK"
23.6 nM,128%,"long-acting GDF15 fusion protein (dimer) FM9-4 + Fc_hole (ΔN2, S64R; linker GS(EEEA)6) (Fc fusion) chain 1: APEAAGGPSVFLFPPKPKDTLMISRTPEVTCVVVDVSHEDPEVKFNWYVDGVEVHNAKTKPREEQYASTYRVVSVLTVLHQDWLNGKEYKCKVSNKALPAPIEKTISKAKGQPREPQVYTLPPSREEMTKNQVSLWCLVKGFYPSDIAVEWESNGQPENNYKTTPPVLDSDGSFFLYSKLTVDKSRWQQGNVFSCSVMHEALHNHYTQKSLSLSPGKGSEEEAEEEAEEEAEEEAEEEAEEEANGDHCPLGPGRCCRLHTVRASLEDLGWADWVLSPREVQVTMCIGACPSQFRAANMHAQIKTRLHRLKPDTVPAPCCVPASYNPMVLIQKTDTGVSLQTYDDLLAKDCHCI chain 2: APEAAGGPSVFLFPPKPKDTLMISRTPEVTCVVVDVSHEDPEVKFNWYVDGVEVHNAKTKPREEQYASTYRVVSVLTVLHQDWLNGKEYKCKVSNKALPAPIEKTISKAKGQPREPQVYTLPPSREEMTKNQVSLSCAVKGFYPSDIAVEWESNGQPENNYKTTPPVLDSDGSFFLVSKLTVDKSRWQQGNVFSCSVMHEALHNHYTQKSLSLSPGK"
6.3 nM,100%,"long-acting GDF15 fusion protein (dimer) FM9-6 + Fc_hole (ΔN2, S64R; linker GS(EAAAK)5) (Fc fusion) chain 1: APEAAGGPSVFLFPPKPKDTLMISRTPEVTCVVVDVSHEDPEVKFNWYVDGVEVHNAKTKPREEQYASTYRVVSVLTVLHQDWLNGKEYKCKVSNKALPAPIEKTISKAKGQPREPQVYTLPPSREEMTKNQVSLWCLVKGFYPSDIAVEWESNGQPENNYKTTPPVLDSDGSFFLYSKLTVDKSRWQQGNVFSCSVMHEALHNHYTQKSLSLSPGKGSEAAAKEAAAKEAAAKEAAAKEAAAKNGDHCPLGPGRCCRLHTVRASLEDLGWADWVLSPREVQVTMCIGACPSQFRAANMHAQIKTRLHRLKPDTVPAPCCVPASYNPMVLIQKTDTGVSLQTYDDLLAKDCHCI chain 2: APEAAGGPSVFLFPPKPKDTLMISRTPEVTCVVVDVSHEDPEVKFNWYVDGVEVHNAKTKPREEQYASTYRVVSVLTVLHQDWLNGKEYKCKVSNKALPAPIEKTISKAKGQPREPQVYTLPPSREEMTKNQVSLSCAVKGFYPSDIAVEWESNGQPENNYKTTPPVLDSDGSFFLVSKLTVDKSRWQQGNVFSCSVMHEALHNHYTQKSLSLSPGK"
9.3 nM,95.6%,"long-acting GDF15 fusion protein (dimer) FM9-3 + Fc_hole (ΔN2, S64R; linker GS(G4S)7) (Fc fusion) chain 1: APEAAGGPSVFLFPPKPKDTLMISRTPEVTCVVVDVSHEDPEVKFNWYVDGVEVHNAKTKPREEQYASTYRVVSVLTVLHQDWLNGKEYKCKVSNKALPAPIEKTISKAKGQPREPQVYTLPPSREEMTKNQVSLWCLVKGFYPSDIAVEWESNGQPENNYKTTPPVLDSDGSFFLYSKLTVDKSRWQQGNVFSCSVMHEALHNHYTQKSLSLSPGKGSGGGGSGGGGSGGGGSGGGGSGGGGSGGGGSGGGGSNGDHCPLGPGRCCRLHTVRASLEDLGWADWVLSPREVQVTMCIGACPSQFRAANMHAQIKTRLHRLKPDTVPAPCCVPASYNPMVLIQKTDTGVSLQTYDDLLAKDCHCI chain 2: APEAAGGPSVFLFPPKPKDTLMISRTPEVTCVVVDVSHEDPEVKFNWYVDGVEVHNAKTKPREEQYASTYRVVSVLTVLHQDWLNGKEYKCKVSNKALPAPIEKTISKAKGQPREPQVYTLPPSREEMTKNQVSLSCAVKGFYPSDIAVEWESNGQPENNYKTTPPVLDSDGSFFLVSKLTVDKSRWQQGNVFSCSVMHEALHNHYTQKSLSLSPGK"
5.3 nM,100%,"long-acting GDF15 fusion protein (dimer) FM9-5 + Fc_hole (ΔN2, S64R; linker GSGGSS(PT)10) (Fc fusion) chain 1: APEAAGGPSVFLFPPKPKDTLMISRTPEVTCVVVDVSHEDPEVKFNWYVDGVEVHNAKTKPREEQYASTYRVVSVLTVLHQDWLNGKEYKCKVSNKALPAPIEKTISKAKGQPREPQVYTLPPSREEMTKNQVSLWCLVKGFYPSDIAVEWESNGQPENNYKTTPPVLDSDGSFFLYSKLTVDKSRWQQGNVFSCSVMHEALHNHYTQKSLSLSPGKGSGGSSPTPTPTPTPTPTPTPTPTPTNGDHCPLGPGRCCRLHTVRASLEDLGWADWVLSPREVQVTMCIGACPSQFRAANMHAQIKTRLHRLKPDTVPAPCCVPASYNPMVLIQKTDTGVSLQTYDDLLAKDCHCI chain 2: APEAAGGPSVFLFPPKPKDTLMISRTPEVTCVVVDVSHEDPEVKFNWYVDGVEVHNAKTKPREEQYASTYRVVSVLTVLHQDWLNGKEYKCKVSNKALPAPIEKTISKAKGQPREPQVYTLPPSREEMTKNQVSLSCAVKGFYPSDIAVEWESNGQPENNYKTTPPVLDSDGSFFLVSKLTVDKSRWQQGNVFSCSVMHEALHNHYTQKSLSLSPGK"

# Target: T1, GDF15 receptors GFRAL and RET, …
# Assay: cell-based or functional assay
# Remark: another data set of the same source
EC50,Emax (%),Binder
3.9 nM,100%,"long-acting GDF15 fusion protein (dimer) FM2 + Fc_hole (ΔN3, G4N, D5S, H6T) (Fc fusion) chain 1: APALAGGPSVFLFPPKPKDTLMISRTPEVTCVVVDVSHEDPEVKFNWYVDGVEVHNAKTKPREEQYNSTYRVVSVLTVLHQDWLNGKEYKCKVSNKALPAPIEKTISKAKGQPREPQVYTLPPSREEMTKNQVSLWCLVKGFYPSDIAVEWESNGQPENNYKTTPPVLDSDGSFFLYSKLTVDKSRWQQGNVFSCSVMHEALHNHYTQKSLSLSPGKGGGGSGGGGSGGGGSGGGGSGGGGSNSTCPLGPGRCCRLHTVRASLEDLGWADWVLSPREVQVTMCIGACPSQFRAANMHAQIKTSLHRLKPDTVPAPCCVPASYNPMVLIQKTDTGVSLQTYDDLLAKDCHCI chain 2: not shown"
2.9 nM,270%,"long-acting GDF15 fusion protein (dimer) FM11 + Fc_hole (ΔN3, G4N, D5S, H6T, S64R) (Fc fusion) chain 1: APALAGGPSVFLFPPKPKDTLMISRTPEVTCVVVDVSHEDPEVKFNWYVDGVEVHNAKTKPREEQYNSTYRVVSVLTVLHQDWLNGKEYKCKVSNKALPAPIEKTISKAKGQPREPQVYTLPPSREEMTKNQVSLWCLVKGFYPSDIAVEWESNGQPENNYKTTPPVLDSDGSFFLYSKLTVDKSRWQQGNVFSCSVMHEALHNHYTQKSLSLSPGKGGGGSGGGGSGGGGSGGGGSGGGGSNSTCPLGPGRCCRLHTVRASLEDLGWADWVLSPREVQVTMCIGACPSQFRAANMHAQIKTRLHRLKPDTVPAPCCVPASYNPMVLIQKTDTGVSLQTYDDLLAKDCHCI chain 2: not shown"
3.3 nM,100%,"long-acting GDF15 fusion protein (dimer) FM3 + Fc_hole (ΔN2, R21N) (Fc fusion) chain 1: APALAGGPSVFLFPPKPKDTLMISRTPEVTCVVVDVSHEDPEVKFNWYVDGVEVHNAKTKPREEQYNSTYRVVSVLTVLHQDWLNGKEYKCKVSNKALPAPIEKTISKAKGQPREPQVYTLPPSREEMTKNQVSLWCLVKGFYPSDIAVEWESNGQPENNYKTTPPVLDSDGSFFLYSKLTVDKSRWQQGNVFSCSVMHEALHNHYTQKSLSLSPGKGGGGSGGGGSGGGGSGGGGSGGGGSNGDHCPLGPGRCCRLHTVNASLEDLGWADWVLSPREVQVTMCIGACPSQFRAANMHAQIKTSLHRLKPDTVPAPCCVPASYNPMVLIQKTDTGVSLQTYDDLLAKDCHCI chain 2: not shown"
5.9 nM,221%,"long-acting GDF15 fusion protein (dimer) FM12 + Fc_hole (ΔN2, R21N, S64R) (Fc fusion) chain 1: APALAGGPSVFLFPPKPKDTLMISRTPEVTCVVVDVSHEDPEVKFNWYVDGVEVHNAKTKPREEQYNSTYRVVSVLTVLHQDWLNGKEYKCKVSNKALPAPIEKTISKAKGQPREPQVYTLPPSREEMTKNQVSLWCLVKGFYPSDIAVEWESNGQPENNYKTTPPVLDSDGSFFLYSKLTVDKSRWQQGNVFSCSVMHEALHNHYTQKSLSLSPGKGGGGSGGGGSGGGGSGGGGSGGGGSNGDHCPLGPGRCCRLHTVNASLEDLGWADWVLSPREVQVTMCIGACPSQFRAANMHAQIKTRLHRLKPDTVPAPCCVPASYNPMVLIQKTDTGVSLQTYDDLLAKDCHCI chain 2: not shown"
1.7 nM,100%,"long-acting GDF15 fusion protein (dimer) FM1 + Fc_hole (ΔN3, WS insertion, G4N, D5S, H6T) (Fc fusion) chain 1: APALAGGPSVFLFPPKPKDTLMISRTPEVTCVVVDVSHEDPEVKFNWYVDGVEVHNAKTKPREEQYNSTYRVVSVLTVLHQDWLNGKEYKCKVSNKALPAPIEKTISKAKGQPREPQVYTLPPSREEMTKNQVSLWCLVKGFYPSDIAVEWESNGQPENNYKTTPPVLDSDGSFFLYSKLTVDKSRWQQGNVFSCSVMHEALHNHYTQKSLSLSPGKGGGGSGGGGSGGGGSGGGGSGGGGSWSNSTCPLGPGRCCRLHTVRASLEDLGWADWVLSPREVQVTMCIGACPSQFRAANMHAQIKTSLHRLKPDTVPAPCCVPASYNPMVLIQKTDTGVSLQTYDDLLAKDCHCI chain 2: not shown"
2.3 nM,267%,"long-acting GDF15 fusion protein (dimer) FM10 + Fc_hole (ΔN3, WS insertion, G4N, D5S, H6T, S64R) (Fc fusion) chain 1: APALAGGPSVFLFPPKPKDTLMISRTPEVTCVVVDVSHEDPEVKFNWYVDGVEVHNAKTKPREEQYNSTYRVVSVLTVLHQDWLNGKEYKCKVSNKALPAPIEKTISKAKGQPREPQVYTLPPSREEMTKNQVSLWCLVKGFYPSDIAVEWESNGQPENNYKTTPPVLDSDGSFFLYSKLTVDKSRWQQGNVFSCSVMHEALHNHYTQKSLSLSPGKGGGGSGGGGSGGGGSGGGGSGGGGSWSNSTCPLGPGRCCRLHTVRASLEDLGWADWVLSPREVQVTMCIGACPSQFRAANMHAQIKTRLHRLKPDTVPAPCCVPASYNPMVLIQKTDTGVSLQTYDDLLAKDCHCI chain 2: not shown"
